Test results from paper PMC3285612.

Key:
[1] = target: activated coagulation factor X (FXa), human (human)
[2] = target: activated coagulation factor X (FXa), human (human); test: enzyme inhibition assay (Ki from IC50 by Cheng and Prusoff); rSimukunin titrated against a constant concentration of enzyme, pre-incubated 5 min, fluorogenic peptidyl substrate 250 µM, 30°C; Ki calculated from the IC50 and the substrate's Km; estimated

B1: recombinant Simukunin (rSV-66) (natural protein)
chain: QENVCNLPVDEGVCRALFKRFYYEPATDSCKEFYYGGCEGNGNRFKSKKECILKCQKNKQLIKTRKRKPKKTTKPPIPIISLD
B1 gave an IC50 of inhibition of enzyme activity (fluorogenic peptidyl substrate, 250 µM); Factor Xa 0.1 nM [1] of 5.2 nM and a Ki [2] of 2.1 nM.
